From the DeepSol protein solubility set

Assay: soluble on expression in E. coli; label from the status in PepcDB or PDB records

Sequence | soluble on expression in E. coli
MGSDKIHHHHHHVSYPANRTPDHLLESDRAAGFEISADFERFDQRNDIFTRAFWDERVKSKDTDAFFASYRMEAAPRRGDGFTQKDFALRNAAWLISDIVSERSAEEGLREGFQGAIRDDTPVAPDKADLGAPEAEAAEMKAVAKLFGADLVGITHFDARWHYSARPDVRTMEAVPNDLPEGLGQVIVMGHAMDADLVETYPSALAGAATGREYSHEAAIVMQVAAYVRNLGYRAVASMNDTALVIPYAIKAGLGEYGRNQMVLTPEFGPRVRFSKIFTDMPLAVDAPRAFGLKAYCEGCDVCAVACPVKALPFGAPEFGGKAPSALRGVKKWTSDAEACFGYWAKLRSDCAICMRVCPFTAPRAGWVDRLWYKLAVGVFGDTGRGIARKWAARRAKARVKPKDWWAALRS | not soluble
MGSDKIHHHHHHVVDSLQQWQEVEAVLADLSQASQEHHYRQTHRLVQDYLDRLQLSPREQQGLEPLLKSLERMQAKLEQQVLHIAVFGLVGRGKSSLLNALVGETVFETGAIHGVTTAIATAAWPLTTDEDGVQRLRWSGLGDVQVELIDTPGIDEIDGDQREALAKRVAQQADLILFVVSGDISQLEQDTLTVLHQAHKPLLLVLNKADQYSDRDREAIRNKLADERLRHLISIDEIVTVAAAPRQAEPEYDGDRLVGTKLVSLPPQVEPLRQRIITLLLHEGQSLLALNALLQMAMVDRQVVRRKLQSRDRQAEELIWRFAIAKGMAVAINPISFVDLLGGAAIDVALILQLSQLYDLPIGEGKAIALLRTIAVGMGSLGLGEGLVRVGLSALKGLMGVAAPVSGGLSLGVYVPVALTQAGIGGFATYAIGQVTKAYLANGADWGPEGAGLLTQQILDSLDEAAILQRLRGEIDRRLRLKQL | not soluble
MGSDKIHHHHHHVVDVAHAVKPMSVPQRIEQASRHDLLVLSSQSGPRQSAWSSLTSALGGQDIDDHAGMPCRRVMLMLAEHEAELLRRECQLIPIVGADAVAQSVTLTKKAVPGNWCAWGVLDRDAAQQHLDAKIVSMGARLRDEPAFGLMFSCLARGPHFYDGVDQDIALLKRYYPSMPVIGFYGNGEIAPLNGRNVLWQNSVVLGLFTAES | not soluble
MGSDKIHHHHHHWQVTGSKTTLDGVEAARMSGIESYPLRLEPELVCEADDLDALLDVDALVITLPARRSGPGEDFYLQAMQELVDSALAYRIPRIIFTSSTSVYGDAQGVVKENTPRNPVTASGRTLKELEDWLHNLPGTSVDILRLAGLVGPGRHPGRFFAGKTAPDGQHGVNLVHLEDVVGAITLLLQAPKGGHIYNICAPAHPARNVFYPQMTRLLGMAPPHFRDAPDNGKGKIIDGSRICNELGFEYQYPDPLVMPME | not soluble
MGSDKIHHHHHHYDLSDVNTDDAVMGESWVAPLGMGYVTSDDVVNVEKVPSIREVDGAYVMIYDGEMKIKGKSLRAASDKVEIASEDITTGDIDGLFDGDFVLALTNPHITLKSNVKNASLDCSLSIEAENTSKKEATSSDFTLSTVSPNIWIGPLDPKTDAFKFVKNEKLPGIVQIVPQKIHLSLSADSKQWTNAPADALSELRYAVELPLTPAPEFSAVSVERIEDAFDEDFVDYIFSDGSARIYGEVTNEMPFDMSIEMVIMDENNVPVDIQFPAQEVKGQSGEVIFEITKEDMPKMKDARHIDLNLHLTGRDQGEALKKGQKTTFNLKLKKEGGISI | not soluble
MGSDKIHHHHHHYKKKFSGEILCAALWGVNLLIGTDSGLMLLDRSGQGKVYPLISRRRFDQMTVLEGQNILATISGRKRRIRVYYLSWLRQKILRTEGAGSANTTEKRNGWVNVGDLQGAIHFKIVRYERIKFLVVGLESSIEIYAWAPKPYHKFMSFKSFGSLSHVPLIVDLTVEDNARLKVLYGSTGGFHAIDLDSAAVYDIYTPAQSGQTTTPHCIVVLPNSNGMQLLLCYDNEGVYVNTYGRMTKNVVLQWGEMPSSVAYISTGQIMGWGNKAIEIRSVDTGHLDGVFMHKKAQKLKFLCERNDKVFFSSAKGGGSCQIYFMTLNKPGLTNW | not soluble
MGSDKIHHHHHHYLNTLQRELENAGIESRLVRRFGYTQEAVDWADAVFSAGGDGTFLMASSRVRTKHKPVIGINTDPQGSEGYMCLMRKLPEENLAGALKKLFSGNFEWLNRQRIRITVTGDDGISDAIELHDQQLNRDPATTRWTDNPRSPAREIEECMSLSPPVKKRMISEAVEIPEVEKETVELPVLALNEVFIGESLSSRVSYYEIGINDAQMLKQKSSGITICTGTGSTSWNFNINKLTEQCVQDLMKIVAEHCNLPQIPHGDKNAVSEICTKFNQQLIFDPDRKQLAFSVRDPIFNATFPPTDPRGFADKICIKSRGYDAHLVIDGGISYRFNDGSEAVMEVRDEDTLRTVVFR | not soluble
MGSGESTTRRVSFGLDEDDRVRILRGVKLSEDVLQRMRNTNADPRPPANNKENQGHQTRTPSTSDAQAPKTQAKTTFPDSKEELKKRYEQQQAIIQEELARIARKEREAARQDISRAVQRERAQTRQESERAKQLGKQLDKKEAELKALEAFYQEQITQLEKKNEERFRMSAEQFHAAATRSEANIKARNVEPVCLNLQAQILNCYRENREQTLQCSDLAKEYMQCINAAKKNLLVNHG | not soluble
MGSLVREWVGFQQFPAATQEKLIEFFGKLKQKDMNSMTVLVLGKGGVGKSSTVNSLIGEQVVRVSPFQAEGLRPVMVSRTMGGFTINIIDTPGLVEAGYVNHQALELIKGFLVNRTIDVLLYVDRLDVYAVDELDKQVVIAITQTFGKEIWCKTLLVLTHAQFSPPDELSYETFSSKRSDSLLKTIRAGSKMRKQEFEDSAIAVVYAENSGRCSKNDKDEKALPNGEAWIPNLVKAITDVATNQRKAIHVDAAALEHHHHHH | soluble
MGSNGGGGGGGKQVLWEFHATGPRNISNPSWRDLIRSSWTDPNYRRIAVSCFVQAAYLLELDRQEKRNGESALAPNWWKPFKYKLVRPLIDSRDGSIYGVLLEWDQLAALSDLIVLRPNGAPKVVLAIRGTVLKQSTVVRDLEDDFRFFTMESLRGSVRFTGALEALKSAIDKRGSNNVCIAGHSLGAGFALQVGKTLAQDGIFVECHLFNPPSVSLGMGLRKLQEKAGKVLKRYVSGSSSNATELSHPTEDGGAASEIGEEKLIKEVKRWVPNLYINSCDYICCFYADRSGVATVTAEKHDGHSGTHSKLFVIAKGPKKFLEAHGLQQWWSDDYELQLAVHDSKLMYRHLKSLYVNES | soluble
MGSRENLYFQGLEHHHHHHHMGHETKAQLKDYVEVKIMKIKTTVAALSVLSVLSFGAFAADSIDAAQAQNREAIGTVSVSGVASSPMDMREMLNKKAEEKGATAYQITEARSGDTWHATAELYK | soluble
MGSSHHHHHHGGTGENLYFQGGSGSSCRGIVVAGVTNQARTQMAEAFLRAFTGGRVFVCSGGVHHLGTVHPLAVVTMAEMGIDVSRQSSSSLAGVRRQRETYDVYVSVDAPYTERTSDRYQRRYTDTQAAQQSSMGAAGLSAPCASSTSDFCDPLLASATPAHWTVSQDTTDGRQSWTLWSPRNPAIYHERSTRKLQDHLYEGEPLFMRVRPHGLRKACRVQRRWEVPELTQRFALETEAEQKARFVQARDLLGSLALVLVRDLEREYGETMLDEAAVAAYEKVAATEC | not soluble
MGSSHHHHHHGKTIFVIVPTNEEQVAFLEALAKQDELNFDWQNPPTEPGQPVVILIPSDMVEWFLEMLKAKGIPFTVYVEEGGSENLYFQGGGGGGLSLPAFSPHCHSLRLGFHVFRKQRARTKTAAVAEQRGLRWTHTTARTAKSGWPPRGHTDTHTHTHTHTHITWEYASSGMTLVFEARRLPFGSISEVYAASIQPIVALHALDKLPLWDRCMLVAVLPVVQQRHSASAAAAPPSTVVRPSLTRNDSDNADAAAASLSSATVRAANHEERVNASPELAGAPSLEDVALALTIVRALDELEVVYDSSISTRAELEQQQQQQPSLPAASLAEAPRRAFKQPKKTSEELLMEQLLQERFTDTAPYLLESSDEGGENSADAAVDVAMCFTVKGESLGIGSATIFGGHGYHP | not soluble
MGSSHHHHHHGKTIFVIVPTNEEQVAFLEALAKQDELNFDWQNPPTEPGQPVVILIPSDMVEWFLEMLKAKGIPFTVYVEEGGSENLYFQGGGGGGRAAGTGDFTAAQRTNTLAVLQAFGRAIPKLGEKWAGNDFCSWEAVLCNAPDVYVSGISPTYAGTLPEMPVNVDYRHVVIKQLDFSEMGPGLSGTLPASWHSMTSLESLSIEKCESISGSVPPEWGSMTSLSVLNLRGTGISGTLPPQWSGMSKARSLQLQDCDLSGSLPSSWSAIPMLASVSLKGNKFCGVCRTRGIRRLVLLWTSRTSTRAATAWLLRTAQRPPLSPPPRQRPPRTSLTFPLRRGPRLSRLPQPALRHRLNPQPPLRHRLNPRPLLPQQTRRLLHQRRSARWMGVRCARGTPLRGARGAVRTTS | not soluble
MGSSHHHHHHGSTKYALVGDVGGTNARLALCDIASGEISQAKTYSGLDYPSLEAVIRVYLEEHKVEVKDGCIAIACPITGDWVAMTNHTWAFSIAEMKKNLGFSHLEIINDFTAVSMAIPMLKKEHLIQFGGAEPVEGKPIAVYGAGTGLGVAHLVHVDKRWVSLPGEGGHVDFAPNSEEEAIILEILRAEIGHVSAERVLSGPGLVNLYRAIVKADNRLPENLKPKDITERALADSCTDCRRALSLFCVIMGRFGGNLALNLGTFGGVFIAGGIVPRFLEFFKASGFRAAFEDKGRFKEYVHDIPVYLIVHDNPGLLGSGAHLRQTLGHIL | soluble
MGSSHHHHHHSSGLVPRGSAVPLCKQALEDLEKTSGHDHPDVATMLNILALVYRDQNKYKEAAHLLNDALAIREKTLGKDHPAVAATLNNLAVLYGKRGKYKEAEPLCKRALEIREKVLGKFHPDVAKQLSNLALLCQNQGKAEEVEYYYRRALEIYATRLGPDDPNVAKTKNNLASCYLKQGKYQDAETLYKEILTRAHEKEFGSVNGDNKPIWMHAEEREESKDKRRDSAPYGEYGSWYKACKVDSPTVNTTLRSLGALYRRQGKLEAAHTLEDCASRNRK | soluble
MGSSHHHHHHSSGLVPRGSGDYDYLIKLLALGDSGVGKTTFLYRYTDNKFNPKFITTVGIDFREKRVVYNAQGPNGSSGKAFKVHLQLWDTAGQERFRSLTTAFFRDAMGFLLMFDLTSQQSFLNVRNWMSQLQANAYCENPDIVLIGNKADLPDQREVNERQARELADKYGIPYFETSAATGQNVEKAVETLLDLIMKRMEQCVEKTQIPDTVNGG | soluble
MGSSHHHHHHSSGLVPRGSHGLVPRGSHMSDDMSMGLPSSAGEHGVLRSMQEVAMSSQEASKMLRTYNIAWWGNNYYDVNELGHISVCPDPDVPEARVDLAQLVKTREAQGQRLPALFCFPQILQHRLRSINAAFKRARESYGYNGDYFLVYPIKVNQHRRVIESLIHSGEPLGLEAGSKAELMAVLAHAGMTRSVIVCNGYKDREYIRLALIGEKMGHKVYLVIEKMSEIAIVLDEAERLNVVPRLGVRARLASQGSGKWQSSGGEKSKFGLAATQVLQLVETLREAGRLDSLQLLHFHLGSQMANIRDIATGVRESARFYVELHKLGVNIQCFDVGGGLGVDYEGTRSQSDCSVNYGLNEYANNIIWAIGDACEENGLPHPTVITESGRAVTAHHTVLVSNIIGVERNEYTVPTAPAEDAPRALQSMWETWQEMHEPGTRRSLREWLHDSQMDLHDIHIGYSSGIFSLQERAWAEQLYLSMCHEVQKQLDPQNRAHRPIIDELQERMADKMYVNFSLFQSMPDAWGIDQLFPVLPLEGLDQVPERRAVLLDITCDSDGAIDHYIDGDGIATTMPMPEYDPENPPMLGFFMVGAYQEILGNMHNLFGDTEAVDVFVFPDGSVEVELSDEGDTVADMLQYVQLDPKTLLTQFRDQVKKTDLDAELQQQFLEEFEAGLYGYTYLEDE | soluble
MGSSHHHHHHSSGLVPRGSHMALGSGVVPFENLQIEEGIITDAEVARFDNIRQGLDFGYGPDPLAFVRWHYDKRKNRIYAIDELVDHKVSLKRTADFVRKNKYESARIIADSSEPRSIDALKLEHGINRIEGAKKGPDSVEHGERWLDELDAIVIDPLRTPNIAREFENIDYQTDKNGDPIPRLEDKDNHTIDATRYAFERDMKKGGVSLWG | soluble
